Results taken from patent publication US20040101905A1, “Product” (priority 2000, published 2004).

Experiments:
[1] = target: T1, SC (secretory component, extracellular portion of the poly Ig receptor) (Homo sapiens, UniProt P01833); assay: ELISA of phage binding to immobilised SC; details: for SC binding of single phage clones (ELISA): immobilised colostrum SC
T1 construct: “secretory component”—the extracellular portion of the poly Ig receptor; from tissue; host or cells: human colostrum
Procedure: Affinity selection: Free SC purified from human colostrum by Jackaline-Sepharose column (Pharmacia Biotech, Uppsala, Sweden) (Brandtzaeg P. Scand. J. Immunol. 1974, 3:579-88) was used. SC was immobilised in Nunc MaxiSorp (Costar) tubes at approximately 30 μg/ml in a volume of 500 μl in each tube at 4° C. ON. The tubes were blocked with 1% BSA or 1% milk powder in PBS for 1 h at RT. Approximately 10^10 TU from each library were pre incubated with PBS and 1% BSA or 1% milk powder (1:1) for 1 h at 4° C. before they were added to the tubes and incubated at RT for 1.5 h. The tubes were washed 6 times with PBS/0.05% Tween 20. Bound phage were eluted by incubation with 500 μl 0.1M HCl-glycine pH 2.2 for 10 min and neutralised with 75 μl 0.1M Tris pH 9.1. Phage were amplified essentially as described by Smith and Scott (Methods Enzymol., 1993, 217:228-257) and two additional rounds of affinity selection were performed.
ELISA assay. The purified colostrum SC was coated at 30 μg/ml in Nunc MaxiSorb wells in PBS at 4° C. ON. The wells were blocked with 200 μl PBS with 1% BSA or 1% milk powder for 1 h at RT. Phage supernatants from amplified eluates or single colonies were diluted 1:1 in blocking buffer, added to the wells and allowed to react with immobilsed SC for 1.5 h at RT. The wells were washed 6 times with PBS/0.05% Tween and bound phage were detected by adding a horse radish peroxidase (HRP)/Anti-M13 IgG conjugate (Pharmacia) 1:4000 in PBS with 1% BSA or 1% milk powder. After incubation for 1 h at RT, washing with PBS/[…] and addition of ABTS substrate solution (ABTS tablets from Boehringer Mannheim in citrate buffer, pH 4.0) the ABTS-HRP reactions were read in a microtiter plate reader set at […] (Dynatech MR 700).

[2] = target: T2, FcγRI receptor (Homo sapiens, UniProt P12314); assay: Affinity selection of phage displayed peptides on IFN-γ stimulated U937 cells (FcγRI binding)
T2 construct: To increase FcγRI expression the U937-cells were treated with 100 U/ml IFN-γ for 40 hours; endogenous in cells; host or cells: U937 cells stimulated with IFN-γ
Procedure: (§1) Affinity selection: For affinity selection, […] stimulated U937cells were washed in 20 ml pan-wash buffer (PBS pH7.4, 1% BSA, 1 mMCaCl2, 10 mMMgCl2) and then resuspended in 1 ml pan-wash buffer. Portions (1×10^10 E. coli K91K transducing units (TU)) of each library were added to the cells. Cells and phages were incubated with agitation for 1.5 hours at 4° C. Unbound phages were removed by washing the cells 6 times with 2 ml pan-wash buffer. Bound phages were eluted in 200 μl 0.1M HCl-glycine pH 2.2 for 10 minutes on ice. The eluates were neutralised with 17 μl 1.5M Tris pH 8.8. Phages were amplified (essentially as described in Smith and Scott Methods Enzymol. 1993;217:228-57). A second round of affinity selection was performed using an input of 10^9 phages.
Peptide sequences of affinity selected phage clones: PCR products covering the peptide coding insert were created using the primers fUSE5 for (5′ […] 3′) and fUSE5 (5′[…] 3′). The PCR products were sequenced (GATC/GmBh Germany) using the primer (5′[…] 3′) and the results shown in Table 1.

[3] = tested on: K562 cells; assay: Phage binding to K562 cells; assay type: cell-based, human; details: input 5 × 10^7 TU; for Output (number of bound phages): 3×10^6 cells
Procedure: (§2) Cells: U937 cells (ATCC CRL-1593) and K562 cells (ATCC CCL-243) were maintained in RPMI 1640 medium (Gibco laboratories) supplemented with 10% heat-inactivated FCS (Biological Industries, Beth Haemark), 2 mM L-glutamine, 100 U/ml penicillin (Gibco). Cells-were incubated at 5% CO2 and 37° C. at density ranging from 10^5 to 10^6 cells/ml.
as §1
(§3) Cell binding of individual phages: Phage expressing the peptide CLRSGLGC were analysed for binding unstimulated U937 cells, IFN-γ stimulated U937 cells, as well as K562 cells. Both U937 and […]. Whereas INF-γ stimulated U937 cells express an increased number of FcγRI, K562-cells preferentially express FcγRII. 5×10^7 TU of individual phage clones were added to 3×10^6 cells in pan-wash buffer, incubated and eluted as described above.

[4] = tested on: unstimulated U937 cells; assay: Phage binding to unstimulated U937 cells; assay type: cell-based, human; details: input 5 × 10^7 TU; for Output (number of bound phages): 3×10^6 cells
Procedure: as §2, §1, §3

[5] = tested on: IFN-γ stimulated U937 cells; assay: Phage binding to IFN-γ stimulated U937 cells; assay type: cell-based, human; details: for % output / Output (number of bound phages): U937-INF-γ, input 5 × 10^7 TU; for Output (number of bound phages): 3×10^6 cells, acid eluate
Procedure: as §2
To increase FcγRI expression the U937-cells were treated with 100 U/ml IFN-γ for 40 hours.
as §1, §3

[6] = Phage binding to control wells (protein A with lysate from untransfected NSO cells; protein A blocked with BSA)
Procedure: (§4) Protein A was immobilised in wells at 10 μg/ml in a volume of 200 μl at 4° C. overnight (ON). The wells were blocked with 1% BSA in PBS for 1 h at room temperature (RT). Lysate from FcFcR-transfected and untransfected cells were added to the wells and incubated at RT for 2 h. The wells were washed and new lysate was added zero, one or two times following 2 h incubation at RT. The wells were washed 7 times with PBS/0.5% Tween 20. 200 μl biotinylated human IgG3 in PBS (1 μg/ml) was added to the wells. The wells were washed as above and binding of biotinylated IgG3 was detected with streptavidin and […] (FIG. 2).
(§5) Wells were coated as described above with lysate from FcFcR transfected NSO cells added three times. Phages displaying the peptide CLRSGLGC were added to the wells and incubated at RT for 1.5 h. The wells were washed 8 times with PBS/0.5% Tween 20. Bound phages were eluted by incubation with 200 μl 0.1M HCl-glycine pH 2.2 for 10 min. and neutralised with 17 μl 0.1M Tris pH 8.8. The number of bound phages were determined as E. coli K91K TU's (Table 4).

[7] = target: T3, FcFcR (recombinant dimeric soluble human FcγRI) (Homo sapiens, UniProt P12314); assay: Binding of phage displayed peptides to recombinant dimeric FcγRI (FcFcR) immobilised via protein A
T3 construct: the extracelluar part of the human FcγRI genetically fused to human IgG4; made in house; host or cells: mouse myeloma cell line NSO (lysate of transfected cells, not purified)
Procedure: as §4, §5

[8] = target: T4, SC (Homo sapiens, UniProt P01833); assay: Inhibition assay of SC binding phages; details: phages CWTSGARWRLC and CVVWMGFQQVC pre incubated with competitor
T4 construct: “secretory component”—the extracellular portion of the poly Ig receptor; from tissue; host or cells: human colostrum
Procedure: Inhibition assay of SC binding phages: Nunc MaxiSorb 96 wells plates were coated with 30 μg/ml of purified colostrum SC at 4° C. ON. The plates were blocked in 1% milk powder for 1 h at RT before adding phage. Phage were pre incubated with […] polymeric IgA (pIgA), pIgM or Streptococcus pneumoniae secretory IgA binding protein (SpsA) in PBS/1% milk powder. SpsA is an streptococcal produced SC binding protein (Hammerschmidt et al. Mol Microbiol 1997 sep 25 (6): 1113-24). After incubation for 1.5 h at RT the plates were washed 6 times before HRP/Anti-M13 conjugate (Pharmacia) 1:4000 in PBS with 1% milk powder was added. 6 times of washing with PBS/0.05% Tween were followed by the ABTS substrate solution. The ABTS-HRP reaction was read in a microtiter plate reader set at 405 nm. All samples were run in duplicates.

T2 sequence (P12314 16-374): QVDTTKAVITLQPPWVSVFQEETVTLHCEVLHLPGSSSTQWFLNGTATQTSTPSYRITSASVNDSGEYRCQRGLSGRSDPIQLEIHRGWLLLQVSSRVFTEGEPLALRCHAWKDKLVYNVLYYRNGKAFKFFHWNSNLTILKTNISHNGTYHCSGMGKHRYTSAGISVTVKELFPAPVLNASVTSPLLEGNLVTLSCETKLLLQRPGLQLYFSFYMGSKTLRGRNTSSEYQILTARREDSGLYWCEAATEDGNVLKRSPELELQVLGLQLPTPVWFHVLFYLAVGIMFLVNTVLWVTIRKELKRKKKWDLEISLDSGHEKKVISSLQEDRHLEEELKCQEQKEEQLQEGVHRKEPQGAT
T3 sequence (P12314 16-292 limits assumed): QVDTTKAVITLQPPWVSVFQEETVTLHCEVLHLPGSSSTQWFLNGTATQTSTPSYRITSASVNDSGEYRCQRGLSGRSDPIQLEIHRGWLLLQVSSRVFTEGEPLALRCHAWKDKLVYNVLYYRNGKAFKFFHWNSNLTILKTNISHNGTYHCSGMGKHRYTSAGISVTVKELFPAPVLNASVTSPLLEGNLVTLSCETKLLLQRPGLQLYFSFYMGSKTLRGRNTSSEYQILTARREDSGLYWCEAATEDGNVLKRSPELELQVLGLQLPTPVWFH
T1 sequence (P01833 19-603 limits assumed): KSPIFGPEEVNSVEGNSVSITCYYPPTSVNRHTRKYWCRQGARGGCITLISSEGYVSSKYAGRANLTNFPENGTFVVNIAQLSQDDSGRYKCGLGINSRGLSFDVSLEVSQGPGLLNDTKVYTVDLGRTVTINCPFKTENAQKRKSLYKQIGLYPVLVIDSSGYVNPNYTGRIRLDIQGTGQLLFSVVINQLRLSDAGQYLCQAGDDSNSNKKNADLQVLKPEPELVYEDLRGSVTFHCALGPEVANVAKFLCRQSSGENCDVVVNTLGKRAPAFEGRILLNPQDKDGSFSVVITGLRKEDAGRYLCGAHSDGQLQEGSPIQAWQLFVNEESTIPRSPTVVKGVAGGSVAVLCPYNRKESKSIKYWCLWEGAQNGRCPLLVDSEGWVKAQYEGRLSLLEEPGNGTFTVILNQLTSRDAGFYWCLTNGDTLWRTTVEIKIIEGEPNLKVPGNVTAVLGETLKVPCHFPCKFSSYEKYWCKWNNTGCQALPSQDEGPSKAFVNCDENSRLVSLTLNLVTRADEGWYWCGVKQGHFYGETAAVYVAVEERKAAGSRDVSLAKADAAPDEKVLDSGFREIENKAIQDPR
T4 sequence (P01833 19-603 limits assumed): as above

For CAWHYRFCGAAHSADGACREVFLVC, the “binding to the poly Ig receptor” value [1] was “shown to bind the poly Ig receptor” and the “SC binding of single phage clones (ELISA)” value (“SC binding … (ELISA)” below) [1] was “positive”.

In the case of CFPVGRATC, the “binding to the FcγRI receptor” value [2] is reported as “shown to bind the FcγRI receptor”.

With “CGPGGTVGYTC [CONTROL, control phage displaying an irrelevant insert (…), reference compound]” the “% output” value [3] was under 0.0004%, the “Output (number of bound phages)” value [3] was <2 × 10^2 TU and the “% output” value [4] was under 0.0004%. The “Output (number of bound phages)” value [4] was <2 × 10^2 TU, the “% output” value [5] was under 0.0004% and the “Output (number of bound phages)” value [5] was <2 × 10^2 TU.

In the case of CGRVNTWLPQC, the “binding to the FcγRI receptor” value [2] is reported as “shown to bind the FcγRI receptor”.

With CLRSGAGC the “binding to the FcγRI receptor” value [2] was “shown to bind the FcγRI receptor”.

For CLRSGANC, the “binding to the FcγRI receptor” value [2] was “shown to bind the FcγRI receptor”.

With CLRSGLGC the “% output” value [6] was 0.05%, the “Output (number of bound phages)” value ([6]; input 2.5 × 10^8) was 1.2 × 10^5 TU and the “binding to wells with immobilised FcFcR compared to wells with no FcR activity” value [7] was “significant better binding”. For the same substance, the “% output” value ([7]; lysate from FcFcR transfected cells) was 0.3%, the “Output (number of bound phages)” value ([7]; lysate from FcFcR transfected cells, input 2.5 × 10^8) was 6.8 × 10^5 TU and the “% output” value [3] was 0.02%. For the same substance, the “Output (number of bound phages)” value [3] was 1.4 × 10^4 TU, the “% output” value [4] was 0.028% and the “Output (number of bound phages)” value [4] was 1.4 × 10^4 TU. For the same substance, the “binding to the FcγRI receptor” value [2] was “shown to bind the FcγRI receptor”, the “times more phages eluted compared to the irrelevant control phage” value ([5]; IFN-γ stimulated U937 cells) was “More than 500 times” and the “% output” value [5] was 0.2%. The “Output (number of bound phages)” value [5] was 1 × 10^5 TU and the “binding to IFN-γ stimulated U937 cells compared to unstimulated U937 cells and K562 cells” value ([5]; same number of cells) was “bound significantly better to IFN-γ stimulated U937 cells”.

In the case of CLRSGLHC, the “binding to the FcγRI receptor” value [2] is reported as “shown to bind the FcγRI receptor”.

With CLRSGRAC the “binding to the FcγRI receptor” value [2] was “shown to bind the FcγRI receptor”.

In the case of CLRSGRGC, the “binding to the FcγRI receptor” value [2] is reported as “shown to bind the FcγRI receptor”.

In the case of CLRSGSGC, the “binding to the FcγRI receptor” value [2] is reported as “shown to bind the FcγRI receptor”.

In the case of CLYGDELC, the “binding to the FcγRI receptor” value [2] is reported as “shown to bind the FcγRI receptor”.

In the case of CQDPICFCGADGACYCTSRNC, the “binding to the poly Ig receptor” value [1] is reported as “shown to bind the poly Ig receptor” and the “SC binding … (ELISA)” value [1] is reported as “positive”.

In the case of CRRATAGCAGC, the “binding to the FcγRI receptor” value [2] is reported as “shown to bind the FcγRI receptor”.

With CRRSGQGC the “binding to the FcγRI receptor” value [2] was “shown to bind the FcγRI receptor”.

In the case of CRSMVMLRVRC, the “binding to the FcγRI receptor” value [2] is reported as “shown to bind the FcγRI receptor”.

With CSAGRACCRYC the “binding to the FcγRI receptor” value [2] was “shown to bind the FcγRI receptor”.

With CSWIPGVGLVC the “binding to the FcγRI receptor” value [2] was “shown to bind the FcγRI receptor”.

For CVVWMGFQQVC, the “binding to the poly Ig receptor” value [1] was “shown to bind the poly Ig receptor” and the “SC binding … (ELISA)” value [1] was “SC binding”.

With CWTSGARWRLC the “binding to the poly Ig receptor” value [1] was “shown to bind the poly Ig receptor” and the “SC binding … (ELISA)” value [1] was “SC binding”.

With SpsA the “blocking of phage binding to SC” value [8] was “blocked phage from binding to the receptor for both peptides”.
